From US20250270304A1 (PHENOMIC AI, published 2025)

T1: Inhibin A (Homo sapiens (Human), UniProt P05111 233-366; P08476 311-426)
T1 sequence 1: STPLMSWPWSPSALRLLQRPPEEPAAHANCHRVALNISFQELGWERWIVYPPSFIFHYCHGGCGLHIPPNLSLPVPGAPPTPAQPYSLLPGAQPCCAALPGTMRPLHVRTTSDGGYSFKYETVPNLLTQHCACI
T1 sequence 2: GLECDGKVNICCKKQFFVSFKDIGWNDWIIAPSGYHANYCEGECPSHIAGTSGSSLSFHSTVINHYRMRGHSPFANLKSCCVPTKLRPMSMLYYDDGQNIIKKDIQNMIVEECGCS

T2: Activin B (Homo sapiens (Human), UniProt P09529 293-407)
T2 construct: also called Mature Activin B; mature Activin B
T2 sequence: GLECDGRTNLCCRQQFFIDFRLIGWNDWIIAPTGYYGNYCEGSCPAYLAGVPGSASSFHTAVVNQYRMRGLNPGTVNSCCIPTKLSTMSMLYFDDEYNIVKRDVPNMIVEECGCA

T3: Latent Activin A (human, UniProt P08476 21-426, limits assumed)
T3 construct: also called INHBA latent
T3 sequence: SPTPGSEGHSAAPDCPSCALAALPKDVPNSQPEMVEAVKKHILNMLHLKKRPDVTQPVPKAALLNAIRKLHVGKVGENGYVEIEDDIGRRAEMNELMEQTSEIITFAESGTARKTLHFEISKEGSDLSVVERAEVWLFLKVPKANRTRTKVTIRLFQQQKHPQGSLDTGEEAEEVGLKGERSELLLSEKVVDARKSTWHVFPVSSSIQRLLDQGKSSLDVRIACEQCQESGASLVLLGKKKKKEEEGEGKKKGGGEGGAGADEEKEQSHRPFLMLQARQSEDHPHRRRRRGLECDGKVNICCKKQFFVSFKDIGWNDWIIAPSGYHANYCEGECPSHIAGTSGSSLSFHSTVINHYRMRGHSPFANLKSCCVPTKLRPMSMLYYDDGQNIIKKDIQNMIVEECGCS

T4: Mature Activin A (human, UniProt P08476 311-426)
T4 construct: also called active Activin A; INHBA mature
T4 sequence: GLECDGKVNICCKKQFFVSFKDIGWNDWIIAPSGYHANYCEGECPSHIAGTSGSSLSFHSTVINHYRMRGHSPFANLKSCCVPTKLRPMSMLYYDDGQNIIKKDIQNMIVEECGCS

B1: AB430 (antibody, IgG1, V domains shown)
VH: EVQLVESGGGLVQPGGSLRLSCAASGFTLSNYPMSWVRQAPGKGLELVASTTSGSSTIYYPDSVKGRFTISRDNAKNSLYLQMNSLRAEDTAVYYCARGPDYYAPLRSYMDVWGKGTTVTVSS
VL: DIVMTQSPLSLPVTPGEPASISCRSSQSLQQSEGRTYLHWYLQKPGQSPQLLIYDASKRASGVPDRFSGSGSGTDFTLKISRVEAEDVGVYYCMQVLRTPITFGGGTKVEIK
B2: AB448 (antibody, IgG1, V domains shown)
VH: QVQLQESGPGLVKPSQTLSLTCTVSGLSLSNAKMGVNWIRQPPGKGLEWIGYVSTTGTTDYNPSLKSRVTMSVDTSKNQFSLKVNSVTAADTAVYYCARAGYPDVWGKGTTVTVSS
VL: DIQMTQSPSSVSASVGDRVTITCRASQNIGAALAWYQQKPGKAPKLLIYGASTREYGVPSRFSGSGSGTDFTLTISSLQPEDFANYYCQQYTAYPLTFGGGTKVEIK
B3: AB366 (antibody, IgG1, V domains shown)
VH: QVQLQESGPGLVKPSQTLSLTCTVSGYSLTDARIGVNWIRQPPGKGLEWIGYINPSGRTDYNPSLKSRVTMSVDTSKNQFSLKVNSVTAADTAVYYCARAGYPDVWGKGTTVTVSS
VL: DIQMTQSPSSVSASVGDRVTITCRASQTISRSLAWYQQKPGKAPKLLIYDASSLAGGVPSRFSGSGSGTDFTLTISSLQPEDFANYYCQQYSSYPSLFGGGTKVEIK
B4: AB428 (antibody, IgG1, V domains shown)
VH: EVQLVESGGGLVQPGGSLRLSCAASGFTSSNHWMSWVRQAPGKGLELVASIGPKGLGTYYPDSVKGRFTISRDNAKNSLYLQMNSLRAEDTAVYYCASIRDYGDKKGGSWFDPWGQGTLVTVSS
VL: DIVMTQSPLSLPVTPGEPASISCRSSQSLLHSSGYNFLHWYLQKPGQSPQLLIYMATNRASGVPDRFSGSGSGTDFTLKISRVEAEDVGVYYCVQDLHTLPQFGGGTKVEIK
B5: AB439 (antibody, IgG1, V domains shown)
VH: EVQLVQSGAEVKKPGASVKVSCKASGYTYTGYRISWVRQAPGQGLEWMGWIDPKSGRTNYAQKLQGRGTMTTDPSTSTAYMELRSLRSDDTAVYYCAREVKQWLVPGRGVYWFDPWGQGTLVTVSS
VL: ESALTQPASVSGSPGQSITISCTGTNIGLRSVSWYQQHPGKAPKLMIYDTNIRSSGVSNRFSGSKSGNTASLTISGLQAEDEADYYCSSYTSSSTDVFGGGTKLTVL
B6: AB431 (antibody, IgG1, V domains shown)
VH: EVQLVESGGGLVQPGGSLRLSCAASGFTSSNHWMSWVRQAPGKGLELVASIGPKGLGTYYPDSVKGRFTISRDNAKNSLYLQMNSLRAEDTAVYYCARDVRGWRALYYYYGMDVWGQGTTVTVSS
VL: DIVMTQSPLSLPVTPGEPASISCRSSQSLLHVTGYNYLHWYLQKPGQSPQLLIYGASSRAAGVPDRFSGSGSGTDFTLKISRVEAEDVGVYYCMQSTQWPHTFGGGTKVEIK
notes: also called mAb 431
B7: AB330 (antibody, IgG1, V domains shown)
VH: QVQLVQSGAEVKKPGASVKVSCKVSGYPSPATISWVRQAPGKGLEWMGWMNPKSGYTNYAQKFQGRVTMTEDTSTDTAYMELSSLKSEDTAVYYCATLHGSGLAFDIWGQGTMVTVSS
VL: DIQMTQSPSSVSASVGDRVTITCRASQDIKSDLAWYQQKPGKAPKLLIYRASARESGVPSRFSGSGSGTDFTLTISSLQPEDFANYYCQQYRSFPWSFGGGTKVEIK
notes: also called mAb 330
B8: AB345 (antibody, IgG1, V domains shown)
VH: EVQLVESGGGLVQPGGSLRLSCAASGFTSSGYWMSWFRQAPGKGLELVASIGTAGVTYYPDSVKGRFTISRDNAKNSLYLQMNSLRAEDTAVYYCARGPHGPQQRLRFDPWGQGTLVTVSS
VL: DIVMTQSPLSLPVTPGEPASISCRSSQSLLSSYGYHNLHWYLQKPGQSPQLLIYMGSIRAPGVPDRFSGSGSGTDFTLKISRVEAEDVGVYYCMQGTQAPRTFGGGTKVEIK
B9: AB344 (antibody, IgG1, V domains shown)
VH: EVQLVESGGGLVQPGGSLRLSCAASGYTFSNYGMSWVRQAPGKGLELVASISKSGSSIYYPDSVKGRFTISRDNAKNSLYLQMNSLRAEDTAVYYCARLPRLAWNYYYGMDVWGQGTTVTVSS
VL: DIVMTQSPLSLPVTPGEPASISCRSSRSLVHGSGDNYLHWYLQKPGQSPQLLIYMASNRAPGVPDRFSGSGSGTDFTLKISRVEAEDVGVYYCVQTLQTPSTFGGGTKVEIK
B10: AB341 (antibody, IgG1, V domains shown)
VH: EVQLVESGGGLVQPGGSLRLSCAASGYTFSNYGMSWVRQAPGKGLELVASISKSGSSIYYPDSVKGRFTISRDNAKNSLYLQMNSLRAEDTAVYYCARLPRLAWNYYYGMDVWGQGTTVTVSS
VL: DIVMTQSPLSLPVTPGEPASISCRSSQSLLHSNEKNYLHWYLQKPGQSPQLLIYDASKRASGVPDRFSGSGSGTDFTLKISRVEAEDVGVYYCVQDLHTPFTFGGGTKVEIK
B11: AB438 (antibody, IgG1, V domains shown)
VH: QVQLQESGPGLVKPSQTLSLTCTVSGVSLSNARLGVNWIRQPPGKGLEWIGYGSVTGSTDYNPSLKSRVTMSVDTSKNQFSLKVNSVTAADTAVYYCTTSYLVDTAMVTRWGQGTLVTVSS
VL: EIVMTQSPATLSLSPGERATLSCRASQSLGTNLAWYQQKPGQAPRLLIYGASSRPSGIPARFSGSGSGTDFTLTISSLEPEDFAVYYCQQYDTHPLSFGGGTKVEIK
B12: AB426 (antibody, IgG1, V domains shown)
VH: EVQLVESGGGLVQPGGSLRLSCAASGFTFSDHHMSWVRQAPGKGLELVASISPSGDFTYYPDSVKGRFTISRDNAKNSLYLQMNSLRAEDTAVYYCARDVSPVYYWGQGALVTVSS
VL: DIVMTQSPLSLPVTPGEPASISCRSSQSLLHWYLQKPGQSPQLLIYMGSQRAAGVPDRFSGSGSGTDFTLKISRVEAEDVGVYYCQSGVTFGGGTKVEIK

What was measured:
Test in all cases: ELISA, coated antigen, OD450
[1] = molecular target: T1, Inhibin A
Method: (§1) Antibodies were re-expressed in 40 mL cultures of Expi293 cells and purified using protein G magnetic sepharose beads (Cytiva, Marlborough, MA) to provide larger quantities for secondary screening. Secondary screening included dose responses in both functional assays described above (SMAD nuclear localization and fibroblast activations assays) as well as in binding assays to the same antigens listed in Table 3. Plates were coated with 25 μL of 3 μg/mL antigen in 384-well Maxisorp plates overnight at 4° C. with agitation. The next day, the samples in the plates were blocked with 70 μL blocking buffer (PBS+1% BSA+0.1% Tween-20) for 2 hours at room temperature. Plates were then washed three times with 100 μL of wash buffer (PBS+0.1% Tween-20). Primary antibodies in Expi293 expression medium were diluted 1:3 in blocking buffer, 25 μL added per well, and the plates were incubated for an hour at room temperature with agitation. Plates were then washed three times and 25 μL of secondary antibody (goat anti-Human IgG, HRP conjugated; Jackson Immunoresearch) diluted 1:5000 in blocking buffer was added for 30 minutes at room temperature. The wells in the plates were washed six times with wash buffer and TMB substrate was added followed by 1 M H3PO4.

[2] = molecular target: T2, Activin B
Method: as §1

[3] = molecular target: T3, Latent Activin A
Method: as §1

[4] = molecular target: T4, Mature Activin A
Method: as §1

fold-change of OD 450 over negative control (BSA) [1] [fold] | fold-change of OD 450 over negative control (BSA) [2] [fold] | fold-change of OD 450 over negative control (BSA) [3] [fold] | fold-change of OD 450 over negative control (BSA) [4] [fold] | Binder
0.86 | 0.51 | 7.44 | 7.58 | B1
0.77 | 0.69 | 2.74 | 3.34 | B2
0.72 | 0.86 | 10.3 | 13.1 | B3
3.09 | 0.72 | 5.93 | 6.34 | B4
 |  | 1.45 | 1.45 | B5
1.13 | 0.96 | 1 | 1.04 | B6
0.97 | 0.61 | 0.75 |  | B7
3.43 | 0.76 | 8.12 | 9.47 | B8
1.18 | 0.75 | 2.35 | 3.18 | B9
0.81 | 0.98 | 4.09 | 6.71 | B10
0.23 | 0.15 | 2.34 | 2.83 | B11
4.84 | 0.51 | 4.81 | 4.66 | B12
